Data reported in patent US20260250737A1, “Engineered Luciferases and Luciferin Substrates” (Monod Bio, Inc., priority 2023, published 2026).

Test system: SmLux
Assay: Computationally generated LgLux variants expressed in E. coli, tested in lysates with SmLux and substrate 1c
Format: biochemical
Settings: 50 uM substrate 1c; for Fold change upon SmLux peptide addition: 20 uM SmLux; for Baseline Signal (Normalized by expression): before SmLux peptide addition
Experimental: LgLux sequences were designed computationally, and their activity measured as depicted schematically in FIG. 45.
A library of the computationally generated LgLux variants were expressed in E. coli and tested in lysates. 20 uM of SmLux and 50 uM of substrate 1c was used for the screening.
LgLux_4039 sequence is as set forth in SEQ ID NO:2773. MBIO-5103 through MBIO-5124, MBIO-5261 through MBIO-5295, MBIO-5101, and MBIO-5102 (SEQ ID NO:2815-SEQ ID NO:2873, respectively) are computationally generated LgLux. The sequences and activity of these LgLux are shown below in Table 21.
MBIO-5358 and MBIO-5360 through MBIO-5381 (SEQ ID NO:2774-SEQ ID NO:2796, respectively) are computationally generated LgLux.

| Molecule | Fold change upon SmLux peptide addition | Baseline Signal (Normalized by expression) |
| --- | --- | --- |
| 5261 (protein) MTPEEIRANVRAFYAALASGDLAAARALFDPGVTITLWDGTTFTSVEEFRAWFEEQFQTSKDALREIESIEVEGDTVRVLVRLTFTRDGVTQEVDLLQLFKFV | 2.16 | 176.8 |
| 5266 (protein) MTPEEIRANVRAFYAALASGDLAAAKALFDPGVTITLWDGTTFTSVEEFRAWFEEQFQTSKDALREIVSLRVEGDTVRVLVRLTFTRDGKVQEVDLLQLFKFV | 1.09 | 129.8 |
| 5271 (protein) MTPEEIRENVRNFYAALASGDLEAAKALFDPGVTITLWDGTTFTSVEEFRAWFEEQFKTSKDALREIVSMEIEGDTVRVLVRLTFTRDGVEQVVDLLQLFKFV | 10.11 | 145 |
| 5267 (protein) MTPEEILANVRAFYAALASGDLAAAKALFDPGVTITLWDGTTFTSVEEFRAWFEEQFKTSKDALREIVSAEVEGDTVRVLVRLTFTRDGKVEEVDLLQLFKFV | 1.42 | 130.6 |
| 5262 (protein) MTPEERIENVRAFYAALASGDWAAARALFDPGVTITLWDGTTFTSVEEFRAWFEKQFKTSKDALREIESIEVEGDTVRVLVRLTFTRDGKEEEVDLLQLFKFV | 2.29 | 139.6 |
| 5280 (protein) MTPEEIRANVRAFYAALASGDWEAARALFDPGVTITLWDGTTFTSVEEFRAWFEKQFQTSKDALREIVALEVEGDVVRVLVRLTFVRDGVEQEVDLLQLFKFV | 1.07 | 129.2 |
| 5274 (protein) MTPEEIRANVRAFYAALASGDWAAAEALFDPGVTITLWDGTTFTSVAEFRAWFEAQFQTSKDALREIVSLEVEGDVVRVLVRLTFVRDGRTEEVDLLQLFKFV | 1.07 | 125.2 |
| 5276 (protein) MTDEEIRANVRAFYAALASGDLEAAKALFDPGVTITLWDGTTFTSVEEFRAWFEKQFKTSKDALREIESLEVEGDTVRVLVRLTFVRDGKEQVVDLLQLFKFV | 6.45 | 125.6 |
| 5279 (protein) MTPEEIRENVRAFYAALASGDLAAAKALFDPGVTITLWDGTTFTSVEEFRAWFEEQFQTSKDALREIVSLEIEGDVVRVLVRLTFTRNGETQVVDLLQLFKFV | 1.12 | 111.8 |
| 5264 (protein) MTPEEIRANVEAFYAALASGDWEAARALFDPGVTITLWDGTTFTSVEEFRAWFEEQFKTSKDALREIVDLEVEGDVVRVLVRLTFVRDGKEEVVDLLQLFKFV | 1.26 | 127.6 |
| 5270 (protein) MTPEAIIANVKAFYAALASGDWAAARALFDPGVTITLWDGTTFTSVEEFRAWFEAQFETSKDALREIVSMEVEGDTVRVLVRLTFVRNGKEEVVDLLQLFKFV | 1.25 | 135.2 |
| 5273 (protein) MTPEAIRENVRAFYAALASGDWEAAKALFDPGVTITLWDGTTFTSVEEFRAWFEKQFKTSKDALREIVSLEVEGDVVRVLVRLTFVRDGKEEVVDLLQLFKFV | 1.01 | 140.4 |
| 5269 (protein) MTPEEIRENVRAFYAALASGDLAAAKALFDPGVTITLWDGTTFTSVEEFRAWFEKQFKTSKDALREIVSLEVEGDTVRVLVRLTFVRDGKEEVVDLLQLFKFV | 1.1 | 137.2 |
| 5268 (protein) MTPEEIRENVRRFYAALASGDLEAAKSLFDPGVTITLWDGTTFTSVEEFRAWFEEQFQTSKDALREIVSLEVEGDVVRVLVRLTFVRDGEVQEVDLLQLFKFV | 1.05 | 133 |
| 5275 (protein) MTPEEIKENVLNFYAALASGDLEAAKALFDPGVTITLWDGTTFTSVEEFRAWFEKQFKTSKDALREIVSMEVEGDVVRVLVRLTFTRDGKVEEVDLLQLFKFV | 1.35 | 122.8 |
| 5103 (protein) MTPEQRIANVRAFYAALASGDLEAAKALFDPGVTITLWDGTTFTSLEEFLAWFEKQFDASKDAKREIVDIEVEGDVVRVLVRLTYTKDGKEKVVDLLQLLKFV | 0.94 | 193.2 |
| 5104 (protein) MTPEEIRANVRAFYAALASGDLAAAKALFDPGTTITLWDGTTFTSLEEFLAWFEKQFKASKDAKREIVSLEVEGDTVRVLVRLTYTVDGKEKVVDLLQLLKFV | 0.97 | 180.8 |
| 5278 (protein) MTPEAIRENVEAFYAALASGDWEAAKALFDPGVTITLWDGTTFTSVEEFRAWFEEQFQTSKDALREIVSMRIEGDTVRVLVRLTFTRDGETQVVDLLQLFKFV | 1.61 | 121.2 |
| 5263 (protein) MTPEEIRANVLAFYAALASGDLAAAEALFDPGVTITLWDGTTFTSVAEFRAWFEAQFQTSKDALREIVDMRVEGDVVRVLVRLTFVRDGEEQVVDLLQLFKFV | 1.38 | 137.4 |
| 5272 (protein) MTPEERIANVRAFYAALASGDWAAAEALFDPGVTITLWDGTTFTSVAEFRAWFEQQFQTSKDALREILDIEVEGDVVRVLVRLTFVRDGKEQVVDLLQLFKFV | 11.86 | 141.4 |
| 5277 (protein) MTPEEIRANVRAFYAALASGDLEAAKALFDPGVTITLWDGTTFTSVEEFRKWFEEQFKTSKDALREIVEMRIEGDVVRVLVRLTFVRDGKEQVVDLLQLFKFV | 1.19 | 120.6 |
| 5265 (protein) MTPEQIRANVRAFYAALASGDWAAAEALFDPGVTITLWDGTTFTSVAEFRAWFEEQFKTSKDALREIVSMEVEGDTVRVLVRLTFVRDGEEKVVDLLQLFKFV | 2.8 | 126.4 |
